Measured values taken from patent publication US20020146805.

T1: Suc-Ala-Ala-Pro-Phe-pNA
T1 chain: AAPF

T2: H-D-Pro-HHT-Arg-pNA
T2 chain: PXR

T3: Meo-Suc-Ala-Ala-Pro-Val-pNA
T3 chain: AAPV

T4: H-D-Lys(CBO)-Pro-Arg-pNA
T4 chain: KPR


Experiments:
[1] = target: T1, Suc-Ala-Ala-Pro-Phe-pNA
[2] = target: T2, H-D-Pro-HHT-Arg-pNA
[3] = target: T3, Meo-Suc-Ala-Ala-Pro-Val-pNA
[4] = target: T4, H-D-Lys(CBO)-Pro-Arg-pNA

Protein | chromogenic amidolytic activity [1] | chromogenic amidolytic activity [2] | chromogenic amidolytic activity [3] | chromogenic amidolytic activity [4] | Specific Activity (amidolytic, release of pNA) (nmole pNA produced/min/ug protein) [2] | Specific Activity (amidolytic, release of pNA) (nmole pNA produced/min/ug protein) [4]
PFEK-protease T-6xHIS zymogen (protein) MDSKGSSQKSRLLLLLVVSNLLLCQGVVSDYKDDDDVDAAALAAPFDDDDKIVGGYALEEGEWPWQVSIQRNGSHFCGGSLIAEQWVLTAAHCFRNTSETSLYQVLLGARQLVQPGPHAMYARVRQVESNPLYQGTASSADVALVELEAPVPFTNYILPVCLPDPSVIFETGMNCWVTGWGSPSEEDLLPEPRILQKLAVPIIDTPKCNLLYSKDTEFGYQPKTIKNDMLCAGFEEGKKDACKGDSGGPLVCLVGQSWLQAGVISWGEGCARQNRPGVYIRVTAHHNWIHRIIPKLQFQPARLGGQKSRHHHHHH | No measurable chromogenic amidolytic activity was detected | No measurable chromogenic amidolytic activity was detected | No measurable chromogenic amidolytic activity was detected | No measurable chromogenic amidolytic activity was detected |  | 
activated protease T-6xHIS (protein) MDSKGSSQKSRLLLLLVVSNLLLCQGVVSDYKDDDDVDAAALAAPFDDDDKIVGGYALEEGEWPWQVSIQRNGSHFCGGSLIAEQWVLTAAHCFRNTSETSLYQVLLGARQLVQPGPHAMYARVRQVESNPLYQGTASSADVALVELEAPVPFTNYILPVCLPDPSVIFETGMNCWVTGWGSPSEEDLLPEPRILQKLAVPIIDTPKCNLLYSKDTEFGYQPKTIKNDMLCAGFEEGKKDACKGDSGGPLVCLVGQSWLQAGVISWGEGCARQNRPGVYIRVTAHHNWIHRIIPKLQFQPARLGGQKSRHHHHHH |  |  |  |  | 0.01 | 0.057
